To fix the notation:
B1: Isoform 2 of Bardet-Biedl syndrome 7 protein (Homo sapiens), Q8IWZ6-2 (parent)
chain: MDLILNRMDYLQVGVTSQKTMKLIPASRHRATQKVVIGDHDGVVMCFGMKKGEAAAVFKTLPGPKIARLELGGVINTPQEKIFIAAASEIRGFTKRGKQFLSFETNLTESIKAMHISGSDLFLSASYIYNHYCDCKDQHYYLSGDKINDVICLPVERLSRITPVLACQDRVLRVLQGSDVMYAVEVPGPPTVLALHNGNGGDSGEDLLFGTSDGKLALIQITTSKPVRKWEIQNEKKRGGILCIDSFDIVGDGVKDLLVGRDDGMVEVYSFDNANEPVLRFDQMLSESVTSIQGGCVGKDSYDEIVVSTYSGWVTGLTTEPIHKESGPGEELKINQEMQNKISSLRNELEHLQYKVLQERENYQQSSQSSKAKSAVPSFGINDKFTLNKDDASYSLILEVQTAIDNVLIQSDVPIDLLDVDKNSAVVSFSSCDSESNDNFLLATYRCQADTTRLELKIRSIEGQYGTLQAYVTPRIQPKTCQVRQYHIKPLSLHQRTHFIDHDRPMNTLTLTGQFSFAEVHSWVVFCLPEVPEKPPAGECVTFYFQNTFLDTQLESTYRKGEGVFKSDNISTISILKDVLSKEATKRKINLNISYEINEVSVKHTLKLIHPKLEYQLLLAKKVQLIDALKELQIHEGNTNFLIPEYHCILEEADHLQEEYKKQPAHLERLYG
partner: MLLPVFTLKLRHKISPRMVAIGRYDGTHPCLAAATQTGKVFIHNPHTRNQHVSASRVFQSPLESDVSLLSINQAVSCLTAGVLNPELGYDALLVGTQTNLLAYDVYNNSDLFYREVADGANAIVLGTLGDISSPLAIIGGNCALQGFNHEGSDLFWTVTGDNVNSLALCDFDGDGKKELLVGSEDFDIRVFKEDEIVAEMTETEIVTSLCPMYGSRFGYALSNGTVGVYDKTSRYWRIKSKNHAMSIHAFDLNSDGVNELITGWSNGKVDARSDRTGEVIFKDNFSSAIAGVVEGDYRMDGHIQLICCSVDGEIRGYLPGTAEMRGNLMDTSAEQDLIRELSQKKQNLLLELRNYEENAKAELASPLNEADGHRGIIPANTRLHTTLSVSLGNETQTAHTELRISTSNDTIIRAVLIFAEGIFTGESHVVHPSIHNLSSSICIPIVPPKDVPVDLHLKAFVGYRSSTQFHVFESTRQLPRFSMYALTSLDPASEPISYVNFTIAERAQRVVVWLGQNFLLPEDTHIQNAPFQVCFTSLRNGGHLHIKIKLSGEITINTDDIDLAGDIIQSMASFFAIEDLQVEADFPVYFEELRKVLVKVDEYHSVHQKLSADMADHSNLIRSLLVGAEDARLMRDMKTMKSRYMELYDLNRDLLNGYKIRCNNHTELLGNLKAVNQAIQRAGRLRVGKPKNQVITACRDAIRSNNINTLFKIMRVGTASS

The variants in the test derive from B1. The following applies: with bbs2_human BBS2, Q9BXC9.
In the case of Y595E, the “effect of a mutation on the interaction” value is given as “with no effect”.

Take Y595K: the “effect of a mutation on the interaction” value is on record as “with no effect”.

Turning to K612E, the “effect of a mutation on the interaction” value is “with no effect”.

Turning to K612A, the “effect of a mutation on the interaction” value is “with no effect”.

On to Q633E, for which the “effect of a mutation on the interaction” value was “with no effect”.

Consider Q633K, for which the “effect of a mutation on the interaction” value is recorded as “with no effect”.

In the case of Q633A, the “effect of a mutation on the interaction” value is on record as “with no effect”.

For C648A, the “effect of a mutation on the interaction” value is on record as “with no effect”.

Turning to C648E, the “effect of a mutation on the interaction” value is reported as “with no effect”.

C648K: the “effect of a mutation on the interaction” value is given as “with no effect”.

For the variant Q616D, the “effect of a mutation on the interaction” value is reported as “disrupting interaction strength”.

Regarding Q616K, the “effect of a mutation on the interaction” value is given as “with no effect”.

Turning to Q616A, the “effect of a mutation on the interaction” value was “with no effect”.

As to Q616E, the “effect of a mutation on the interaction” value was “with no effect”.

As to H610A, the “effect of a mutation on the interaction” value is recorded as “with no effect”.

With H610K, the “effect of a mutation on the interaction” value is recorded as “with no effect”.

H610E: the “effect of a mutation on the interaction” value was “with no effect”.

As to L619A, the “effect of a mutation on the interaction” value is listed as “with no effect”.

Turning to L619K, the “effect of a mutation on the interaction” value is on record as “with no effect”.

Turning to L619E, the “effect of a mutation on the interaction” value is given as “with no effect”.

Regarding A620K, the “effect of a mutation on the interaction” value is “with no effect”.

On to A620E, for which the “effect of a mutation on the interaction” value is recorded as “with no effect”.

Regarding S601K, the “effect of a mutation on the interaction” value is recorded as “with no effect”.

On to S601A, for which the “effect of a mutation on the interaction” value is listed as “with no effect”.

Consider S601E, for which the “effect of a mutation on the interaction” value is “with no effect”.

Take Q624S: the “effect of a mutation on the interaction” value is reported as “disrupting interaction strength”.

Consider Q624A, for which the “effect of a mutation on the interaction” value is reported as “with no effect”.

Take Q624L: the “effect of a mutation on the interaction” value is “disrupting interaction strength”.

On to Q624E, for which the “effect of a mutation on the interaction” value was “with no effect”.

For Q624Y, the “effect of a mutation on the interaction” value was “disrupting interaction strength”.

Consider Q624K, for which the “effect of a mutation on the interaction” value is listed as “with no effect”.

G637E: the “effect of a mutation on the interaction” value is listed as “with no effect”.

G637K: the “effect of a mutation on the interaction” value is reported as “with no effect”.

Take G637A: the “effect of a mutation on the interaction” value is recorded as “with no effect”.

As for K588A, the “effect of a mutation on the interaction” value is on record as “with no effect”.

Take K588E: the “effect of a mutation on the interaction” value is on record as “with no effect”.

In the case of E636A, the “effect of a mutation on the interaction” value is recorded as “with no effect”.

For E636K, the “effect of a mutation on the interaction” value is recorded as “with no effect”.

For the variant V623A, the “effect of a mutation on the interaction” value is reported as “with no effect”.

Regarding V623K, the “effect of a mutation on the interaction” value is “with no effect”.

With V623E, the “effect of a mutation on the interaction” value is “with no effect”.

Turning to L625A, the “effect of a mutation on the interaction” value is listed as “with no effect”.

In the case of L625K, the “effect of a mutation on the interaction” value is on record as “with no effect”.

For the variant L625E, the “effect of a mutation on the interaction” value was “with no effect”.

For L642K, the “effect of a mutation on the interaction” value is recorded as “with no effect”.

On to L642E, for which the “effect of a mutation on the interaction” value is reported as “with no effect”.

As for L642A, the “effect of a mutation on the interaction” value is “with no effect”.

Consider E614K, for which the “effect of a mutation on the interaction” value is reported as “with no effect”.

For the variant E614A, the “effect of a mutation on the interaction” value is listed as “disrupting interaction strength”.

Consider L606E, for which the “effect of a mutation on the interaction” value was “with no effect”.

With L606K, the “effect of a mutation on the interaction” value was “with no effect”.

With L606A, the “effect of a mutation on the interaction” value is on record as “with no effect”.

For the variant V602E, the “effect of a mutation on the interaction” value is given as “with no effect”.

Regarding V602A, the “effect of a mutation on the interaction” value is reported as “with no effect”.

As to V602K, the “effect of a mutation on the interaction” value is on record as “with no effect”.

L618E: the “effect of a mutation on the interaction” value is recorded as “with no effect”.

Take L618K: the “effect of a mutation on the interaction” value is reported as “with no effect”.

Take L618A: the “effect of a mutation on the interaction” value is recorded as “with no effect”.

Regarding I634E, the “effect of a mutation on the interaction” value is “with no effect”.

As for I634A, the “effect of a mutation on the interaction” value was “with no effect”.

As for I634K, the “effect of a mutation on the interaction” value is “with no effect”.

For the variant V600E, the “effect of a mutation on the interaction” value is “with no effect”.

Turning to V600A, the “effect of a mutation on the interaction” value is “with no effect”.

As for V600K, the “effect of a mutation on the interaction” value is “with no effect”.

With E596K, the “effect of a mutation on the interaction” value is on record as “with no effect”.

Consider E596A, for which the “effect of a mutation on the interaction” value is “with no effect”.

Consider Y646E, for which the “effect of a mutation on the interaction” value is listed as “with no effect”.

On to Y646A, for which the “effect of a mutation on the interaction” value is given as “with no effect”.

Turning to Y646K, the “effect of a mutation on the interaction” value is reported as “with no effect”.

Take K603A: the “effect of a mutation on the interaction” value is recorded as “with no effect”.

Turning to K603E, the “effect of a mutation on the interaction” value was “with no effect”.

For the variant N592E, the “effect of a mutation on the interaction” value was “with no effect”.

As for N592K, the “effect of a mutation on the interaction” value is “with no effect”.

For N592A, the “effect of a mutation on the interaction” value is recorded as “with no effect”.

Y615A: the “effect of a mutation on the interaction” value was “with no effect”.

For the variant Y615K, the “effect of a mutation on the interaction” value is reported as “with no effect”.

Turning to Y615E, the “effect of a mutation on the interaction” value is “with no effect”.

Regarding E645K, the “effect of a mutation on the interaction” value was “with no effect”.

Consider E645A, for which the “effect of a mutation on the interaction” value is listed as “with no effect”.

Regarding K586E, the “effect of a mutation on the interaction” value is recorded as “with no effect”.

For K586A, the “effect of a mutation on the interaction” value was “with no effect”.

Turning to P644A, the “effect of a mutation on the interaction” value is listed as “with no effect”.

For P644K, the “effect of a mutation on the interaction” value was “with no effect”.

With P644E, the “effect of a mutation on the interaction” value was “with no effect”.

Consider H647K, for which the “effect of a mutation on the interaction” value is recorded as “with no effect”.

Turning to H647A, the “effect of a mutation on the interaction” value is “with no effect”.

In the case of H647E, the “effect of a mutation on the interaction” value is listed as “with no effect”.

On to L650E, for which the “effect of a mutation on the interaction” value is “with no effect”.

For L650A, the “effect of a mutation on the interaction” value is “with no effect”.

For the variant L650K, the “effect of a mutation on the interaction” value is “with no effect”.

L608A: the “effect of a mutation on the interaction” value was “with no effect”.

L608K: the “effect of a mutation on the interaction” value was “with no effect”.

Take L608E: the “effect of a mutation on the interaction” value is given as “with no effect”.
